From publication PMC3287177

Key:
Experiment in all cases: EMSA
Lin28 39-112 (CSD) = target: T1, Lin28 39-112 (CSD) (Mus musculus, UniProt Q8K3Y3 39-112)
T1 sequence: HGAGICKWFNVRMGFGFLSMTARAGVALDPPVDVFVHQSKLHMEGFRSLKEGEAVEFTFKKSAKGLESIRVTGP

[1] = target: T2, Lin28 119-180 (NCp7-like domain) (Mus musculus, UniProt Q8K3Y3 119-180)
T2 sequence: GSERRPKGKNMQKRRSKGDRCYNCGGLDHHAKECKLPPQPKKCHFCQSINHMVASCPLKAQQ

Lin28 1-209 = target: T3, Lin28 1-209 (Mus musculus, UniProt Q8K3Y3 1-209)
T3 sequence: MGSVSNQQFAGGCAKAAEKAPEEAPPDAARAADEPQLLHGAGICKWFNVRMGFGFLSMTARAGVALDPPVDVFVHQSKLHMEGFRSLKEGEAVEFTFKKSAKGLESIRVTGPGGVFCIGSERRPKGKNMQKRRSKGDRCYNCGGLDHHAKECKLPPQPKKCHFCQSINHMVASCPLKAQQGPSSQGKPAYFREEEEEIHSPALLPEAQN

B1: pre-let-7g (structured_RNA)
RNA: UGAGGUAGUAGUUUGUACAGUUUGAGGGUCUAUGAUACCACCCGGUACAGGAGAUAACUGUACAGGCCACUGCCUUGCC
For B1, the Kd (Lin28 39-112 (CSD)) was 41 ± 10 nM, the Kd [1] was 0.6 ± 0.1 nM and the Kd (Lin28 1-209) was 0.15 ± 0.04 nM.
